This is an account of results in patent US10894811B2, “Peptide inhibitors of calcium channels” (The University of North Carolina at Chapel Hill, priority 2016, dated 2021).

“Also recorded” adds a separate entry of the source.

In experiment [1] the test system is tracheal rings. Briefly: Myography of murine tracheal rings (ex vivo contraction). Also on record: species or system mouse. The following applies: pretreatment with recombinant SPLUNC1 protein for 1 h prior to agonist addition. On the procedure: Myography of Murine Tracheal Rings: Tracheas were excised from 8-week old SPLUNC1 WT and KO mice. After removing excessive connecting tissue, the trachea was cut into ˜4-mm rings, mounted on a DMT 620M myography apparatus and allowed to rest in modified Ringer's solution (119 mM NaCl, 4.7 mM KCl, 1.17 mM MgSO4, 1.18 mM KH2PO4, 2.5 mM CaCl2, 25 mM NaHCO3, 0.027 mM EDTA, 5.5 mM glucose) with continuous oxygenation (95% O2/5% CO2) at 37° C. for 20 min with no applied tension. Optimal passive tension (1 mN) was then applied to the rings. The baseline force was then recorded after stable tension was achieved. The induced contractile force of each ring was assessed by measuring contraction stimulated by 60 mM KCl or […] Ach (unless indicated otherwise), respectively.

Experiment [2] has as its target Orai1 (Homo sapiens, UniProt Q96D31). Put plainly: Co-immunoprecipitation in HEK293T cell lysates (V5-SPLUNC1 / HA-Orai1). The format is binding. Set-up: expressed in transfected cells; host or cells: HEK293T. The following applies: HEK293T cells cotransfected with V5-SPLUNC1 and HA-Orai1. On the procedure:
(§1) DNA constructs: Yellow fluorescent protein (YFP) tagged human Orai1 and Myc tagged TRPC3 were gifts from Dr. Craig Montell (Addgene plasmid #25902) and Dr. Anjana Rao (Addgene plasmid #19756), respectively. HA tagged human Orai1 was a generous gift from Dr. Patrick G Hogan at La Jolla Institute for Allergy & Immunology. pcDNA3.1(+)-V5-SPLUNC1 was a generous gift from Dr. Colin D Bingle at the University of Sheffield.
(§2) For immunoprecipitation, cell lysates were collected at 48 h post-transfection in Pierce® IP lysis buffer in the presence of 1× protease inhibitor cocktail (PIC) (Roche). Cell lysates were pre-cleared with protein A/G agarose beads and then incubated with 1 μg of antibodies against HA (BioLegend) or V5 (Invitrogen) with protein A/G agarose beads on a rotator at 4° C. overnight. After three washes with IP lysis buffer, immunoprecipitated complexes were eluted in sample buffer (50 mM Tris-HCl [pH 6.8], 2% sodium dodecyl sulfate (SDS), 10% glycerol, 5% (v/v) β-mercaptoethanol (BME), 0.1% bromophenol blue) by heating the samples at 95° C. for 5 min, electrophoresed through SDS-polyacrylamide gels, and subjected to immunoblot analysis.

In experiment [3] the target is T1, TRPC3 (Homo sapiens, UniProt Q13507).
T1 construct: host or cells: HEK293T
T1 sequence (Q13507 74-921 limits assumed): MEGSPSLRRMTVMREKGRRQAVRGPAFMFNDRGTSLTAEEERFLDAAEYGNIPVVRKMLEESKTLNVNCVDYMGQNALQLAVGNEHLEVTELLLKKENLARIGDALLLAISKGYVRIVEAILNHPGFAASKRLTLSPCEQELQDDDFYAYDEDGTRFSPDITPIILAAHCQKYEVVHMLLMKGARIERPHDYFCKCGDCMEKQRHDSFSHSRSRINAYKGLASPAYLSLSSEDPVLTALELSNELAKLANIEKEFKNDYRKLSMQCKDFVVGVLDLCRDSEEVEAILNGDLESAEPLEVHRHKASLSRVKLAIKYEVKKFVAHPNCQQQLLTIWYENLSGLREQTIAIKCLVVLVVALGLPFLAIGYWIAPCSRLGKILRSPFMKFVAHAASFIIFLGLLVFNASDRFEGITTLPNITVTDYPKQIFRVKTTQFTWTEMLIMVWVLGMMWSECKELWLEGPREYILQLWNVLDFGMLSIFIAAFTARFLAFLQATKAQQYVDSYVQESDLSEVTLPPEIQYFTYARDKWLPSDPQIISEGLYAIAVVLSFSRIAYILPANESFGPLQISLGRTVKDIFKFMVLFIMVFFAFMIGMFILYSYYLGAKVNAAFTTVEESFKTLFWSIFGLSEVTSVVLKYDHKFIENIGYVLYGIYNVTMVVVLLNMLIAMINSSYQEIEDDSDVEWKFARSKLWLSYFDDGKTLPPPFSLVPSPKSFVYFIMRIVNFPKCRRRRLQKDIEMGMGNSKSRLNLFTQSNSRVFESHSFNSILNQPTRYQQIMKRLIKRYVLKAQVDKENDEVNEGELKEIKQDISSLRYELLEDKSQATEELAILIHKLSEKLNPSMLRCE
Briefly: Co-immunoprecipitation in HEK293T cell lysates (V5-SPLUNC1 / Myc-TRPC3). The experiment is classed as binding. The following applies: HEK293T cells cotransfected with V5-SPLUNC1 and Myc-TRPC3. As to the method:
as §1, §2

The subject of experiment [4] is ASMC plasma membranes. Briefly: SPLUNC1 binding to ASMCs after Orai1 shRNA (surface biotinylation, fluorescent SPLUNC1 binding assay). The following applies: Orai1 shRNA knockdown vs scrambled control, 72 h post transfection. Also on record: species or system human. As to the method:
Short hairpin RNA (shRNA) plasmid against Orai1 and scrambled control shRNA plasmid were purchased from Sigma Aldrich and published previously (Sheridan et al., J. Biol. Chem. 288:33509 (2013)). Transfections of all plasmid DNA and shRNA were performed using Lipofectamine 2000 reagent (Life Technologies) according to the manufacturer's instructions.
Fluorescent SPLUNC1 binding assay: Human ASMCs were transfected with scrambled control shRNA and Orai1 shRNA respectively. 72 h post transfection, cells were treated with or without SPLUNC1-DyLight 633 for 1 h, then washed for 5 times with ice-cold Ringer's solution. ASMC-bounded SPLUNC1-Dylight 633 was detected by fluorescent plate reader (Tecan). Cells were also stained with calcein AM (Life Technologies) as cell number control. Relative fluorescent intensity was calculated by normalizing fluorescent intensity at 658 nm to 526 nm.
Surface biotinylation: hASMCs were treated with or without SPLUNC1 for 4 h. Cells were then washed with prechilled PBS^++ (phosphate buffered saline supplemented with 1 mM CaCl2 and 1 mM MgCl2), and then labeled with 0.5 mg/ml sulfo-NHS-biotin (Thermo) in borate buffer (85 mM NaCl, 4 mM KCl, 15 mM Na2B4O7, pH 9.0) while tumbling gently for 30 min on ice. hASMCs were incubated in PBS^++ buffer supplemented with 10% FBS for 20 min at 4° C. to quench free biotin. […]

Sequence of Orai1 (Q96D31 whole entry): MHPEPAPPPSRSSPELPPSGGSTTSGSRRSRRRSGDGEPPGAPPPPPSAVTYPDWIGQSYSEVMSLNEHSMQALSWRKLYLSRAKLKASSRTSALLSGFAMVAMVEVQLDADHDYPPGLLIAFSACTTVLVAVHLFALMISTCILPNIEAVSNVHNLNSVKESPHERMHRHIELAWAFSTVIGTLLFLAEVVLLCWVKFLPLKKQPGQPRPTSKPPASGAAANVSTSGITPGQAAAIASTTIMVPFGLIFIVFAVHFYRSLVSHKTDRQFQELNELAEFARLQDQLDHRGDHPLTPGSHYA

B1: SPLUNC1: Short palate, lung and nasal epithelium clone 1, recombinant full length protein (protein, listed as Homo sapiens)
chain: MFQTGGLIVFYGLLAQTMAQFGGLPVPLDQTLPLNVNPALPLSPTGLAGSLTNALSNGLLSGGLLGILENLPLLDILKPGGGTSGGLLGGLLGKVTSVIPGLNNIIDIKVTDPQLLELGLVQSPDGHRLYVTIPLGIKLQVNTPLVGASLLRLAVKLDITAEILAVRDKQERIHLVLGDCTHSPGSLQISLLDGLGPLPIQGLLDSLTGILNKVLPELVQGNVCPLVNEVLRGLDITLVHDIVNMLIHGLQFVIKV
On to B1, for which, in experiment [1], the “contraction (contractile force) of tracheal rings” value was “suppressed contraction”. In addition, the “co-immunoprecipitation with Orai1” value in experiment [2] is “could be co-immunoprecipitated; also recorded: interacting with Orai1”. Also, the “co-immunoprecipitation with TRPC3” value in experiment [3] is given as “but not an alternate Ca^2+ channel (TRPC3), could be co-immunoprecipitated; also recorded: does not interact with TRPC3”. For the same molecule, the “SPLUNC1 binding to ASMC plasma membranes” value in experiment [4] was “decreased; also recorded: decreases SPLUNC1 binding to the ASMC membrane; also recorded: decreases fluorescent SPLUNC1 binding to ASMCs”.
